In patent US20090175974A1 one finds cytotoxicity (propidium iodide staining of GFP-positive transfected Hi5 cells, flow cytometry) and cytotoxicity (propidium iodide staining of GFP-positive transfected S2 cells, flow cytometry) data, which are given here for one substance.

The target in this experiment is TmCad1(EC12-cyto), partial Tenebrio molitor cadherin from extracellular domain 12 through the end of the cytoplasmic domain, expressed on insect cells (Tenebrio molitor). The experiment in a line: cell-based or functional assay.

“Cry3Aa protoxin purified from sporulated cultures of Bacillus thuringiensis var. tenebrionis (from UniProt P0A379 1-644)” gave a cytotoxicity (propidium iodide staining of GFP-positive transfected Hi5 cells, flow cytometry) of 25% and a cytotoxicity (propidium iodide staining of GFP-positive transfected S2 cells, flow cytometry) of 40%.
